# Patent publication US8541373B2, “BChE albumin fusions for the treatment of cocaine abuse” (priority 2009, dated 2013)
# Test system: cocaine
# Experiment: Plasma cocaine, benzoylecgonine and ecgonine methyl ester (LC-MS) and cocaine PK after IV cocaine post-AlbuBChE
# Format: in vivo, cynomolgus monkeys
# Settings: for Ecgonine methyl ester plasma concentration (mean) / Mean benzoylecgonine plasma concentration / Mean cocaine plasma concentration / Mean benzoylecgonine AUC(0-t) / Mean cocaine AUC % Extrap / Mean cocaine AUC(0-t) / Mean cocaine AUC(0-∞) / Mean cocaine C0 / Mean cocaine CI / Mean cocaine Vss / Mean cocaine t½: 5 mg/kg IM
# Procedure: Blood was placed into K2EDTA blood collection tubes with esterase inhibitor diisopropylfluorophosphate (DFP). Tubes were inverted several times and placed on wet ice upon collection. Samples were centrifuged at 2-8° C. within 45 minutes of collection. The resultant plasma was recovered and a single 200 μL aliquot of plasma was placed into polypropylene tubes. Plasma samples were frozen over dry ice and stored at −75±15° C.
# The following outline describes the LC-MS-based assay employed for the measurement of cocaine in plasma samples. Prior to MS analysis, plasma samples, calibration standards and controls were extracted using supported liquid extraction (SLE-ISOLUTE, Biotage). Twenty-five microliters of samples (25 μL) received 150 μl of 5% Ammonium hydroxide and 25 μl internal standard solution (Cocaine-d3). After mixing and transfer to SLE plate, samples were eluted with methylene chloride and evaporated to dryness. After resuspension in 50 μl of reconstitution solution—5% ACM in 10 mM ammonium acetate in water, 10 μl was injected onto Thermo Hypercarb column at 0.5 ml/min. Mobile phase was biphasic. Mass spectrophotometric detection was performed using Api 4000, APCI positive interface and Multiple Reaction Monitoring (MRM). Plasma concentrations of cocaine, benzoylecgonine and ecgonine methyl ester were determined using this assay.
# When the data permits, pharmacokinetic parameter values for cocaine and its metabolites were determined using plasma concentration-times profiles for individual animals at all the study days of cocaine administration. […] Specifically the model for non-compartmental analysis with IV bolus input for cocaine and extravascular input for the metabolites.
# [1] = cocaine 1 mg/kg IV 48 hr post-AlbuBChE, 10 min after cocaine
# [2] = cocaine 1 mg/kg IV 48 hr post-AlbuBChE, 15 min after cocaine
# [3] = cocaine 1 mg/kg IV 48 hr post-AlbuBChE, 20 min after cocaine
# [4] = cocaine 1 mg/kg IV 48 hr post-AlbuBChE, 30 min after cocaine
# [5] = cocaine 1 mg/kg IV 48 hr post-AlbuBChE, 40 min after cocaine
# [6] = cocaine 1 mg/kg IV 48 hr post-AlbuBChE, 60 min after cocaine
# [7] = cocaine 1 mg/kg IV 96 hr post-AlbuBChE
# [8] = cocaine 1 mg/kg IV 96 hr post-AlbuBChE, 5 min after cocaine
# [9] = cocaine 1 mg/kg IV 96 hr post-AlbuBChE, 10 min after cocaine
# [10] = cocaine 1 mg/kg IV 96 hr post-AlbuBChE, 15 min after cocaine
# [11] = cocaine 1 mg/kg IV 96 hr post-AlbuBChE, 20 min after cocaine
# [12] = cocaine 1 mg/kg IV 96 hr post-AlbuBChE, 30 min after cocaine
# [13] = cocaine 1 mg/kg IV 96 hr post-AlbuBChE, 40 min after cocaine
# [14] = cocaine 1 mg/kg IV 96 hr post-AlbuBChE, 60 min after cocaine
# [15] = cocaine 1 mg/kg IV 120 hr post-AlbuBChE
# [16] = cocaine 1 mg/kg IV 120 hr post-AlbuBChE, 5 min after cocaine
# [17] = cocaine 1 mg/kg IV 120 hr post-AlbuBChE, 10 min after cocaine
# [18] = cocaine 1 mg/kg IV 120 hr post-AlbuBChE, 15 min after cocaine
# [19] = cocaine 1 mg/kg IV 120 hr post-AlbuBChE, 20 min after cocaine
# [20] = cocaine 1 mg/kg IV 120 hr post-AlbuBChE, 30 min after cocaine
# [21] = cocaine 1 mg/kg IV 120 hr post-AlbuBChE, 40 min after cocaine
# [22] = cocaine 1 mg/kg IV 120 hr post-AlbuBChE, 60 min after cocaine
# [23] = cocaine 1 mg/kg IV 240 hr post-AlbuBChE
# [24] = cocaine 1 mg/kg IV 240 hr post-AlbuBChE, 5 min after cocaine
# [25] = cocaine 1 mg/kg IV 240 hr post-AlbuBChE, 10 min after cocaine
# [26] = cocaine 1 mg/kg IV 240 hr post-AlbuBChE, 15 min after cocaine
# [27] = cocaine 1 mg/kg IV 240 hr post-AlbuBChE, 20 min after cocaine
# [28] = cocaine 1 mg/kg IV 240 hr post-AlbuBChE, 30 min after cocaine
# [29] = cocaine 1 mg/kg IV 240 hr post-AlbuBChE, 40 min after cocaine
# [30] = cocaine 1 mg/kg IV 240 hr post-AlbuBChE, 60 min after cocaine
substance,measurement,setting,value
AlbuBChE,Ecgonine methyl ester plasma concentration (mean),[1],68.9 ng/mL
same,Mean benzoylecgonine plasma concentration,[1],21.0 ng/mL
same,Mean cocaine plasma concentration,[1],89.9 ng/mL
same,Ecgonine methyl ester plasma concentration (mean),[2],102 ng/mL
same,Mean benzoylecgonine plasma concentration,[2],24.4 ng/mL
same,Mean cocaine plasma concentration,[2],82.7 ng/mL
same,Ecgonine methyl ester plasma concentration (mean),[3],107 ng/mL
same,Mean benzoylecgonine plasma concentration,[3],23.7 ng/mL
same,Mean cocaine plasma concentration,[3],49.5 ng/mL
same,Ecgonine methyl ester plasma concentration (mean),[4],108 ng/mL
same,Mean benzoylecgonine plasma concentration,[4],25.9 ng/mL
same,Mean cocaine plasma concentration,[4],36.7 ng/mL
same,Ecgonine methyl ester plasma concentration (mean),[5],106 ng/mL
same,Mean benzoylecgonine plasma concentration,[5],25.5 ng/mL
same,Mean cocaine plasma concentration,[5],18.9 ng/mL
same,Ecgonine methyl ester plasma concentration (mean),[6],108 ng/mL
same,Mean benzoylecgonine plasma concentration,[6],24.4 ng/mL
same,Mean cocaine plasma concentration,[6],5.74 ng/mL
same,Mean benzoylecgonine AUC(0-t),[7],3222 ng·min/mL
same,Mean cocaine AUC % Extrap,[7],14.2%
same,Mean cocaine AUC(0-t),[7],6624 ng·min/mL
same,Mean cocaine AUC(0-∞),[7],7729 ng·min/mL
same,Mean cocaine C0,[7],0.19 µg/mL
same,Mean cocaine CI,[7],7.74 L/h/kg
same,Mean cocaine Vss,[7],4.111 L/kg
same,Mean cocaine t½,[7],21.3 min
same,Ecgonine methyl ester plasma concentration (mean),[8],100 ng/mL
same,Mean benzoylecgonine plasma concentration,[8],44.2 ng/mL
same,Mean cocaine plasma concentration,[8],176 ng/mL
same,Ecgonine methyl ester plasma concentration (mean),[9],60.9 ng/mL
same,Mean benzoylecgonine plasma concentration,[9],43.5 ng/mL
same,Mean cocaine plasma concentration,[9],166 ng/mL
same,Ecgonine methyl ester plasma concentration (mean),[10],82.2 ng/mL
same,Mean benzoylecgonine plasma concentration,[10],49.7 ng/mL
same,Mean cocaine plasma concentration,[10],174 ng/mL
same,Ecgonine methyl ester plasma concentration (mean),[11],104 ng/mL
same,Mean benzoylecgonine plasma concentration,[11],51.1 ng/mL
same,Mean cocaine plasma concentration,[11],136 ng/mL
same,Ecgonine methyl ester plasma concentration (mean),[12],111 ng/mL
same,Mean benzoylecgonine plasma concentration,[12],56.1 ng/mL
same,Mean cocaine plasma concentration,[12],99.0 ng/mL
same,Ecgonine methyl ester plasma concentration (mean),[13],126 ng/mL
same,Mean benzoylecgonine plasma concentration,[13],57.7 ng/mL
same,Mean cocaine plasma concentration,[13],80.6 ng/mL
same,Ecgonine methyl ester plasma concentration (mean),[14],127 ng/mL
same,Mean benzoylecgonine plasma concentration,[14],60.5 ng/mL
same,Mean cocaine plasma concentration,[14],35.2 ng/mL
same,Mean benzoylecgonine AUC(0-t),[15],3624 ng·min/mL
same,Mean cocaine AUC % Extrap,[15],14.5%
same,Mean cocaine AUC(0-t),[15],9378 ng·min/mL
same,Mean cocaine AUC(0-∞),[15],11046 ng·min/mL
same,Mean cocaine C0,[15],0.411 µg/mL
same,Mean cocaine CI,[15],5.58 L/h/kg
same,Mean cocaine Vss,[15],2.857 L/kg
same,Mean cocaine t½,[15],22.3 min
same,Ecgonine methyl ester plasma concentration (mean),[16],45.5 ng/mL
same,Mean benzoylecgonine plasma concentration,[16],44.6 ng/mL
same,Mean cocaine plasma concentration,[16],298 ng/mL
same,Ecgonine methyl ester plasma concentration (mean),[17],46.0 ng/mL
same,Mean benzoylecgonine plasma concentration,[17],47.5 ng/mL
same,Mean cocaine plasma concentration,[17],217 ng/mL
same,Ecgonine methyl ester plasma concentration (mean),[18],96.5 ng/mL
same,Mean benzoylecgonine plasma concentration,[18],50.3 ng/mL
same,Mean cocaine plasma concentration,[18],216 ng/mL
same,Ecgonine methyl ester plasma concentration (mean),[19],60.1 ng/mL
same,Mean benzoylecgonine plasma concentration,[19],57.3 ng/mL
same,Mean cocaine plasma concentration,[19],161 ng/mL
same,Ecgonine methyl ester plasma concentration (mean),[20],79.9 ng/mL
same,Mean benzoylecgonine plasma concentration,[20],63.6 ng/mL
same,Mean cocaine plasma concentration,[20],139 ng/mL
same,Ecgonine methyl ester plasma concentration (mean),[21],122 ng/mL
same,Mean benzoylecgonine plasma concentration,[21],69.5 ng/mL
same,Mean cocaine plasma concentration,[21],113 ng/mL
same,Ecgonine methyl ester plasma concentration (mean),[22],187 ng/mL
same,Mean benzoylecgonine plasma concentration,[22],69.2 ng/mL
same,Mean cocaine plasma concentration,[22],49.5 ng/mL
same,Mean benzoylecgonine AUC(0-t),[23],5088 ng·min/mL
same,Mean cocaine AUC % Extrap,[23],29.2%
same,Mean cocaine AUC(0-t),[23],12952 ng·min/mL
same,Mean cocaine AUC(0-∞),[23],18578 ng·min/mL
same,Mean cocaine C0,[23],0.424 µg/mL
same,Mean cocaine CI,[23],3.34 L/h/kg
same,Mean cocaine Vss,[23],2.637 L/kg
same,Mean cocaine t½,[23],33.8 min
same,Ecgonine methyl ester plasma concentration (mean),[24],127 ng/mL
same,Mean benzoylecgonine plasma concentration,[24],44.9 ng/mL
same,Mean cocaine plasma concentration,[24],346 ng/mL
same,Ecgonine methyl ester plasma concentration (mean),[25],26.1 ng/mL
same,Mean benzoylecgonine plasma concentration,[25],56.4 ng/mL
same,Mean cocaine plasma concentration,[25],283 ng/mL
same,Ecgonine methyl ester plasma concentration (mean),[26],30.7 ng/mL
same,Mean benzoylecgonine plasma concentration,[26],71.9 ng/mL
same,Mean cocaine plasma concentration,[26],283 ng/mL
same,Ecgonine methyl ester plasma concentration (mean),[27],35.1 ng/mL
same,Mean benzoylecgonine plasma concentration,[27],83.4 ng/mL
same,Mean cocaine plasma concentration,[27],226 ng/mL
same,Ecgonine methyl ester plasma concentration (mean),[28],49.6 ng/mL
same,Mean benzoylecgonine plasma concentration,[28],88.4 ng/mL
same,Mean cocaine plasma concentration,[28],211 ng/mL
same,Ecgonine methyl ester plasma concentration (mean),[29],53.1 ng/mL
same,Mean benzoylecgonine plasma concentration,[29],101 ng/mL
same,Mean cocaine plasma concentration,[29],161 ng/mL
same,Ecgonine methyl ester plasma concentration (mean),[30],58.0 ng/mL
same,Mean benzoylecgonine plasma concentration,[30],108 ng/mL
same,Mean cocaine plasma concentration,[30],111 ng/mL
same,AlbuBChE activity (cocaine concentrations vs Day 1 control),"240 hr post-AlbuBChE administration of 0.2, 1 or 5 mg/kg",not active
